Molecular target: HIV-1 tat protein (HIV-1, UniProt P04608)
Assay: phage binding to tat coated magnetic beads; TR5 also selected in 4 separate screening experiments

B1: phage TR5 (anti-tat Fv, synthetic single chain antibody displayed on FUSE5 phage) (scFv)
scFv: EVQLVESGRGLVQPGGSLRLSCAASGFTFSHFLVAWVRQAPGKGLEWVATYSMISRARVLDGSFNGRYTISRDDSKNTLYLQMNSLRAEDTAVYYCARIGSTHTIPRLSQYGGQGTLVTVSSGGGGSGGGGSGGGGSDIQMTQSPSSLSASVGDRVTITCKLRGPQPHAITWYQQKPGKAPKLLIYYDGQTLVGVPSRFSGSGSGTDFTPTISSLEPEDFATYYCTPTHKIDSPFGQGTKVEIKRT
B1: binds.

— patent US5395750, “Methods for producing proteins which bind to predetermined antigens” (Hoffmann-La Roche Inc., dated 1995)
